Source: patent US20060073087A1, “Method and apparatus for the formation of particles” (priority 1994, published 2006)

Experiment: colorimetric beta-lactamase activity assay with Nitrocefin (method of O'Callaghan)
Assay type: biochemical
Settings: particles formed from aqueous solution with ethanol and supercritical CO2; tested colorimetrically with Nitrocefin
From the text: This illustrates the successful use of the method and apparatus of the invention in preparing particulate protein products in a controlled manner, even where the proteins are insoluble in, or incompatible with, organic solvents.

B1: R-TEM beta-lactamase (protein, UniProt P62593 24-286, looked up)
Beta-lactamase TEM: HPETLVKVKDAEDQLGARVGYIELDLNSGKILESFRPEERFPMMSTFKVLLCGAVLSRVDAGQEQLGRRIHYSQNDLVEYSPVTEKHLTDGMTVRELCSAAITMSDNTAANLLLTTIGGPKELTAFLHNMGDHVTRLDRWEPELNEAIPNDERDTTMPAAMATTLRKLLTGELLTLASRQQLIDWMEADKVAGPLLRSALPAGWFIADKSGAGERGSRGIIAALGPDGKPSRIVVIYTTGSQATMDERNRQIAEIGASLIKHW
notes: water-soluble protein R-TEM beta-lactamase, batch number 1TEM1L88, formed into particles by the method of the invention
enzymatic activity of the particulate product: retained substantial enzymatic activity
